The subject of series [1] is endogenous Bmx. Briefly: Kinase activity of endogenous Bmx immunoprecipitated from stimulated HUVECs, with or without PI-3 kinase inhibitors. It counts as cell-based, human. Conditions: HUVECs starved overnight; hVEGF and VEGF-B 60 ng/ml for 5 min, IL-3 200 ng/ml for 30 min. The source says: The polyclonal antibody (Ab) against human Bmx was produced against the Tec Homology (TH) domain by Dr. Toshio Suda (amino acids 151-169, NH2-[…]—COOH (SEQ. ID. NO.: 4)). The monoclonal anti-hemagglutinin (HA)-epitope Ab, phosphotyrosine Ab, and anti-CD31 Ab were from Berkeley Antibody Company (Richmond, Calif.), from Transduction Laboratories and from DAKO, respectively. GCSF growth factor was a kind gift from Dr. Riitta Alitalo, while VEGF was obtained from R&D Systems, Minneapolis, Minn. VEGF-B was produced in Drosophila cells by Terhi Karpanen. Mouse IL-3 was obtained from Calbiochem Novabiochem. Phosphatidyl inositol-3 kinase inhibitors Wortmannin and LY294002, were both from Sigma. For inhibition of PI3K activity, 100 nM for 30 min of Wortmannin and 100 μM of LY294002 for 30 min, were used.
Cell culture and transfections. 293T cells were grown in Dulbecco's Modified Eagle's Medium (DMEM), Human umbilical vein endothelial cells (HUVECs) were maintained in Hy-clone 199 medium. […]
(§1) In vitro substrate immunocomplex kinase assay was performed as follows. […] The filters were fixed and washed one time in 10% TCA 8% sodium pyrophosphate, 3 times in 5% TCA and 2 times in ethanol after which radioactivity was measured using Pharmacia Wallac 1410 Liquid Scintillation Counter. […] The gel was dried and Bmx autokinase activity was detected by exposure on film.

Series [2] deals with Bmx. Briefly: In vitro substrate immunocomplex kinase assay of Bmx immunoprecipitated from stimulated BmxHA expressing 32Dcl3 cells. It counts as cell-based, mouse. Conditions: BmxHA expressing 32Dcl3 pools, starved 14 hours in IL-3 and serum free media; IL-3 200 ng/ml for 30 min, hGCSF 100 ng/ml for 5 min; vs unstimulated. On the procedure:
Cell culture and transfections. 293T cells were grown in Dulbecco's Modified Eagle's Medium (DMEM), Human umbilical vein endothelial cells (HUVECs) were maintained in Hy-clone 199 medium. […] All media were supplemented with 10% fetal calf serum, glutamine and antibiotics, the Hy-clone 199 medium additionally with endothelial cell growth supplement-ECGS (Upstate Biotechnology). Where indicated, cells were stimulated with growth factors, hGCSF 100 ng/ml, hVEGF and VEGF-B 60 ng/ml, for 5 min or with mIL-3 or hIL-3, 200 ng/ml, for 30 min.
Transfections and generation of stable BmxHA and BmxHA K444R expressing pools (and clones). Transient co-transfections of293T cells were done using the Calcium Phosphate Transfection kit (GIBCO) according to manufacturer's instructions. The cells were transfected with Bmx-HA expression plasmid and the receptor plasmid or empty vector (PCI-Neo or pcDNAZ3.1) in the ration of 1:4. […]
as §1

Entries after “also recorded” stand apart in the source; their conditions may differ.

As for VEGF, the “endogenous Bmx kinase activity after stimulation” value in series [1] was “increased endogenous Bmx activity; also recorded: activated”.

B1: GCSF: GCSF growth factor (granulocyte growth factor), gift from Dr. Riitta Alitalo (protein)
chain: TPLGPASSLPQSFLLKCLEQVRKIQGDGAALQEKLCATYKLCHPEELVLLGHSLGIPWAPLSSCPSQALQLAGCLSQLHSGLFLYQGLLQALEGISPELGPTLDTLQLDVADFATTIWQQMEELGMAPALQPTQGAMPAFASAFQRRAGGVLVASHLQSFLEVSYRVLRHLAQP
For B1, the “increase of Bmx kinase activity” value in series [2] is “around 1.7 fold”.

B2: VEGF-B: VEGF-B produced in Drosophila cells; ligand of Flt1 receptor (protein, UniProt P49765 22-207, looked up)
Vascular endothelial growth …: PVSQPDAPGHQRKVVSWIDVYTRATCQPREVVVPLTVELMGTVAKQLVPSCVTVQRCGGCCPDDGLECVPTGQHQVRMQILMIRYPSSQLGEMSLEEHSQCECRPKKKDSAVKPDRAATPHHRPQPRSVPGWDSAPGAPSPADITHPTPAPGPSAHAAPSTTSALTPGPAAAAADAAASSVAKGGA
B2: the “endogenous Bmx kinase activity after stimulation” value in series [1] is on record as “increased endogenous Bmx activity; also recorded: activated”.

(Values after patent US20060160761A1, “Regulation of vascular endothelium using BMX tyrosine kinase” (priority 1994, published 2006).)
